Article PMC9239094 (mBio, 2022)

Legend:
Assay in all cases: cryo-EM structure; single-particle cryo-EM of the complex purified in LMNG (Strep-Tactin XT, then SEC); samples at A280 of 1 on Quantifoil Au R1.2/1.3 grids, blotted at 4°C; SthGldLM′ also with fluorinated octyl maltoside in buffer W (100 mM Tris-HCl pH 8.0, 150 mM NaCl, 1 mM EDTA) plus 0.01% LMNG
[1] = biological target: Capnocytophaga canimorsus GldL (Capnocytophaga canimorsus)
[2] = biological target: Sphingobacterium wenxiniae GldL (Sphingobacterium wenxiniae)
[3] = biological target: Schleiferia thermophila GldL (Schleiferia thermophila)
[4] = biological target: the molecule itself

| Molecule | stoichiometry N [4] | further results |
| --- | --- | --- |
| Capnocytophaga canimorsus GldL (natural protein) | – | stoichiometry N [1]: 5 |
| Sphingobacterium wenxiniae GldL (natural protein) | – | stoichiometry N [2]: 5 |
| Schleiferia thermophila GldL (natural protein) | – | stoichiometry N [3]: 5 |
| Capnocytophaga canimorsus GldM″ (GldM truncated after the D2 periplasmic domain, twin-Strep-tagged) (domain or fragment) MAGGNSPRQKMINLMYLVFISMLALNMGKEVLSAFGLMNEKLEASNEKANNANINAIQALEQNNAENPDQFAEAFQKSKKVKELSDSFYNYIEGIKGEVMNQVGEDKKDYQVMDKSDYLDQKFFVGDNYKPEGEEFVRQINDYKTQLVELLGGKEGTYGELVGKIDGNFNTNDVVDREGVTRKWLNYNFEGFPYIASVAKLSMMQSDIRATEQEVYAEMLKGQLKSQISMTNYTTLLEQSKGAYYQGESFDGAIVLGRKDASTRPNEVELMLDGRKLSASEFQIEDGKVKLKVGAGNAGEHKITGNLYFDQDGKRIAVPVSQVFSTIPKPENLYFQGQFGSWSHPQFEKGGGSGGGSGGGSWSHPQFEK | 2 | – |
| Schleiferia thermophila GldM′ (GldM truncated after the first periplasmic D1 domain, twin-Strep-tagged) (domain or fragment) MAQGKLSPRQRMINMMYLVLTALLALNISKDILEALTKLNEDLSSTVMTVEKKLAFIYQAFDLAASENPEKAGVWRDKAYEVKKQADELHNYLEGIKNDLIEITGGIDEKTNRPKGLDNREKVANYLLVNEGGKAREIRARLEQFRDNMKQYVDEEAALINMLEALFNTEKKKVGDVMIEWENATFEHFPLAAVIPFITGIQANVRNAEADIISHLQRNIGKTDLKFTDENLYFQGQFGSWSHPQFEKGGGSGGGSGGGSWSHPQFEK | 2 | – |
| Porphyromonas gingivalis PorM′ (PorM truncated after the first periplasmic D1 domain, twin-Strep-tagged) (domain or fragment) MAVGSNGNANRQKMINLMYLVFIAMMALNVSSEVLDGFDKVDKSLTSSIDGSDKRNNLVLSELNTAYRTNPEKVKVWYERSLVLQKEADSLCTFIDDLKLAIARESDGKDAKVNDIRRKDNLDASSVVMLNPINGKGSTLRKEVDKFRELVATLMTDKAKLKLIEQALNTESGTKGKSWESSLFENMPTVAAITLLTKLQSDVRYAQGEVLADLVKSVDVGDYRVNS | 2 | – |
| Sphingobacterium wenxiniae GldM′ (GldM truncated after the first periplasmic D1 domain, twin-Strep-tagged) (domain or fragment) MAGKKETPRQRMIGILYLVLLGLVALNVSDSILDAFKNLGNSLNTSTQNTQAGIDNMFLAFRETKLKENPERAQPILQKAEQAQALVQQLTSKVGELTTLLEGEGGGLDEETGDVKYRSSTDISARLMINEGRAKELREVITKTKAELLTLTNNEINLTLEAEDPAPRGGIKKTWEQANFGDGIPLTAAITALEKINADAKNAESAVVKHIFGKMDQAVVNLDQENLYFQGQFGSWSHPQFEKGGGSGGGSGGGSWSHPQFEK | 2 | – |
| Porphyromonas gingivalis PorL (natural protein) MGHYRRYKNILEMYLASHKGRRLLNIVYSWGAAVVILGALFKLLHLPMGNEMLFVGMITEFLVFFISGFEKPAMEYHWEEVFPELDSKNPMDRREMEQRREYLREKAKEAAAYAERPSSVRLASASLGTQPQEQPKPATPFQSQLTGILPEEQIQRLSEGIDKLAEAGEQLARIGRTAAAMTESYEQMQADQEGLRLNSQSYIQQMESLSRNISGLNTIYEIQLKGISSQIDTIDRINRGLAHIRDMYDNSVIDSSSFRNENERMARQLTQLNEVYARLLQALTTNVGLPGMPGNFGASNPSSSGSSPL | 5 | – |
